Molecular target: Xenopus laevis FANCA, full length (Xenopus laevis)
Experiment: cryo-EM structure; single-particle cryo-EM of the purified FANCA-FANCG complex (0.8 mg/ml, 0.003% DDM); four classes: FANCA CTD dimer at 3.35 and 3.46 A, two FANCA-FANCG complexes at 4.59 and 4.84 A

Xenopus laevis FANCA, full length (natural protein)
stoichiometry N: 2

Source: publication PMC7102982
